Measured values: paper PMC9085972

Biological target: V5-HSP70 (UniProt P0DMV8)
Experiment: co-IP

Chain of UniProt P0DMV8 (P0DMV8 whole entry): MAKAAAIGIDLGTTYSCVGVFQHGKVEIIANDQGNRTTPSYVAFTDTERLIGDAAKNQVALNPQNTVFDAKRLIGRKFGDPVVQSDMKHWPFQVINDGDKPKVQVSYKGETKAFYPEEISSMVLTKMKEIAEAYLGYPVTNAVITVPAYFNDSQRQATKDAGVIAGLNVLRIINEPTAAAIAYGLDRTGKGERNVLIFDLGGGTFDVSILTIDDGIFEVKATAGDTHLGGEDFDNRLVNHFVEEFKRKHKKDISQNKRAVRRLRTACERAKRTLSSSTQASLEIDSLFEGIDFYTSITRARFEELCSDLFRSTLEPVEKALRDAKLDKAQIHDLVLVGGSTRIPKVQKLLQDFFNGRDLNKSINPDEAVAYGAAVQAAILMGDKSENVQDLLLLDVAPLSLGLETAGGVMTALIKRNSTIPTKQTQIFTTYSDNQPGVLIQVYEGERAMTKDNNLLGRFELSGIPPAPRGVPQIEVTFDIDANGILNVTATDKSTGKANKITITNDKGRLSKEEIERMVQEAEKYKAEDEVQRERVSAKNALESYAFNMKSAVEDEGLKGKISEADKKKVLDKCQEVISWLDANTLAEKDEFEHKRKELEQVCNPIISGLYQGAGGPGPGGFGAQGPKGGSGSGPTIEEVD

Substance: BAG3 with L462P mutation (pCDH-L462P BAG3) (from UniProt O95817 1-575) (natural protein)
- decrease of the association relative to WT BAG3: > 50%
